{
  "source": "paper PMC7156492",
  "biological_target": "tetrameric Y-complex fragment Nup120-Nup145C-Sec13-Nup85 (NPC-II) (Myceliophthora thermophila)",
  "sequence (main, as listed by the source, chain 1 of 3)": "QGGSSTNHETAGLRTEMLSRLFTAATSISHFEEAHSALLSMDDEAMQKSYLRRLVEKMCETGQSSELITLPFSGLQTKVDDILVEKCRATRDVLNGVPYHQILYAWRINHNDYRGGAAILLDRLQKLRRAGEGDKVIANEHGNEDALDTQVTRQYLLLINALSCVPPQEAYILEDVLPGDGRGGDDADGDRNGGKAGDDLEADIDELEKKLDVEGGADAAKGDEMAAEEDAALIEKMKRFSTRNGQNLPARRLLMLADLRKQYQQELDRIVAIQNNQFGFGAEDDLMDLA",
  "sequence (partner, as listed by the source, chain 2 of 3)": "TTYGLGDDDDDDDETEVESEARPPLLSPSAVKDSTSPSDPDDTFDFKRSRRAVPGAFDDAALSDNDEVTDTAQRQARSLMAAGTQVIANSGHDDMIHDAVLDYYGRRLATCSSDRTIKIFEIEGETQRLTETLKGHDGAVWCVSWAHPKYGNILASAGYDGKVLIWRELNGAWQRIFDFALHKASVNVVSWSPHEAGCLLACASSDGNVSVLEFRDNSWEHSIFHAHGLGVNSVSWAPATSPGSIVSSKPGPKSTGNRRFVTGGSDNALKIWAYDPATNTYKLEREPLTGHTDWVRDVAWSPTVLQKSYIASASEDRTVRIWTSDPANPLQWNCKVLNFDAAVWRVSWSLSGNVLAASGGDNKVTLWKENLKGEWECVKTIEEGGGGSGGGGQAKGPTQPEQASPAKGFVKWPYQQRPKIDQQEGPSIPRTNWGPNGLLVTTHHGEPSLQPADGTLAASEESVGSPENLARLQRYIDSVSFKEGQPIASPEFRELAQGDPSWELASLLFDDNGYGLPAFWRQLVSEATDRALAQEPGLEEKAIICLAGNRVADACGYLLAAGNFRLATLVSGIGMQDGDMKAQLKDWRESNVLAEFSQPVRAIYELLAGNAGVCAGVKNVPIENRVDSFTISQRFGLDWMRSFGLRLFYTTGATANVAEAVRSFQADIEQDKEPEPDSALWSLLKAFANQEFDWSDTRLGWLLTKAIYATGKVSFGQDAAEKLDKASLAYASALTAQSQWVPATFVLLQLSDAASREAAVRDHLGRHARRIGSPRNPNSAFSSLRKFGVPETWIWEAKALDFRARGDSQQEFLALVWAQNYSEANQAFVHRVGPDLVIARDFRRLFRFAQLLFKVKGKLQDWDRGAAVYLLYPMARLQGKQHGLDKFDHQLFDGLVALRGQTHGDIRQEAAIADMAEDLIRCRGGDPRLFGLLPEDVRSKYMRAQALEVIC",
  "sequence (partner, as listed by the source, chain 3 of 3)": "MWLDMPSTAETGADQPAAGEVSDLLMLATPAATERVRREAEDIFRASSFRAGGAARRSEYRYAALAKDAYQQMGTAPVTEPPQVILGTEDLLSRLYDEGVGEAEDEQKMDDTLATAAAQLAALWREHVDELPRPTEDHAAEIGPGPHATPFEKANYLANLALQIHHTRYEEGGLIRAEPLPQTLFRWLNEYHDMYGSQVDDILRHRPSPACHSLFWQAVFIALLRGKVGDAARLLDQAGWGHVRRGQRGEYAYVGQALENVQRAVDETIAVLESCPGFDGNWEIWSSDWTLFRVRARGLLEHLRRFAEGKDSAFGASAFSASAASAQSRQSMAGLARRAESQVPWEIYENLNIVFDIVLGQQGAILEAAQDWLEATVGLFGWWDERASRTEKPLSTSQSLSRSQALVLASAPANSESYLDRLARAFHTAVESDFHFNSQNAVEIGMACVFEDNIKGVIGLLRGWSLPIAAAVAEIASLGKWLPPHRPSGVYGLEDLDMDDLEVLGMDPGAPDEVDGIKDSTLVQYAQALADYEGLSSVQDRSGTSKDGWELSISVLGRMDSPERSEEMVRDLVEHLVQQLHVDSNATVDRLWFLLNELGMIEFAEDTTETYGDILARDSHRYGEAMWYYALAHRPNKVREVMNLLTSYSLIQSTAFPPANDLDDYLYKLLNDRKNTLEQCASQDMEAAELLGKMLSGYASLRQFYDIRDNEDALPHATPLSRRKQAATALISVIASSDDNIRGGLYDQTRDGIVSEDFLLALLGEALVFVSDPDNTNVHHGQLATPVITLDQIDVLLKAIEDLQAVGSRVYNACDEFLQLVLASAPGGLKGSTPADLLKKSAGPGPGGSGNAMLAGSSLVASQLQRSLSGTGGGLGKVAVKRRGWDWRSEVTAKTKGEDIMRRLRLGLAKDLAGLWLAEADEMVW",
  "experiment": "mass photometry; mixture of NPC-I and NPC-II (NPC-III) diluted 10-fold from 482 nM immediately before measurement; 10 mM HEPES pH 7.5, 150 mM NaCl, 1 mM DTT, 0.1 mM EDTA; no cross-linker",
  "data": [
    {"substance": "tetrameric Nup82-Nup145N-Nup159-Nsp1 complex (NPC-I)", "values": [
      {"measurement": "stoichiometry N", "result": 1}
    ]}
  ]
}
